Substrate in this data set: O=c1cc(-c2ccccc2)oc2cc(O)cc(O)c12
The experiment in a line: cells, lysate or membranes. To be noted: 1 mM NADPH, 100 mM sodium phosphate pH 7.9, 0.5 mM reduced glutathione, 28°C, chrysin 0.1-5 μM.

B1: SbCYP82D1.1 (Scutellaria baicalensis) (protein)
chain: MELSSVIYGAIALLSLFYCYLHFSKPKKSSLNAPPEAGGARFITGHLHLMDGRSASDKLPHINLGLLADQHGPIFTIRLGVHRAVVVSSWELAKEIFTTHDTAVMARPRLIADDYLSYDGASLGFSPYGPYWREIRKLVTTELLSARRIELQRATRVREITQFTGELYKLWEEKKDGSGRVLVDMKQWLGNLSLNLVSRMVVGKRFYGGDDSETTKRWRGVMREFFQLIGQFIPGDGLPFLRWLDLGGFEKRTRDTAYELDKIIAMWLAEYRKREYSGDDKEQCFMALMLSLVQANPTLQLHYDADTIIKATCQVLISAASDTTTVILIWVISLLLNNADVLKKVQEELDEQVGRERRVEESDISNLPYLQAVVKETMRLYPPAPFAGVRAFSEDCTVGGYHIQKGTFLIVNLWKLHRDPRVWSDDALEFKPQRFFDKKVEVKGQDFELMPFGGGRRMCPGSNLGMHMVHFVLANILQAFDITTGSTVDMTESVGLTNMKATPLDAILTPRLSPTLY
As for B1, the Km (3 min) was 0.121 µM.

B2: SbCYP82D2 (Scutellaria baicalensis) (protein)
chain: MLYDNSQYLAMEFSSAIYGAIAFFLFLYYCLLYTTSSKPNTRAYKAPPEAGGARLFSGHLHLMAGGTTGELPHINLANLADKHGPVFTIRLGVKRALVVSSWESAKELFTTCDVAVSSRPRMKAAKLLGYDFAMFGFAPYGAYWRELRKLISVELLSTRRMELQKEVRDSETRESIKELYKLWEERSEGSDSVLVDMKQWFGDLNLNVVLRMVAGKRWIGPETGRWREVLRDFFYLAGMFVPADAFPFLGWLDLGGHEKRMRQTAKELDGIVGGWVAEHREKEYSGEDKPKDFVDVMLSVVQGSSLRADYDADTIIKATCEALIVGGSDTTTVMLIWTLSFLLNNRHVLRKAQEELDKHVGRERRVNQSDINNLVYLQAIVKETLRLYPAGPIGGIREFTQDCQVGGYHVPKGTWLIVNLWKLHRDPKVWSEDCLEFRPERFLNKNIDVRGQDFELIPFGGGRRICPGANFGLHMLHLVLANLLQAFELTTVSDQVIDMTESAGMTNMKATPLNVLVAPRLSPTLY
B2: for the setting “30 min”, the Km is 1.051 µM.

By Km is commonly meant the concentration of substrate that gives half-maximal velocity.

The record behind these values is PMC5770198.
